Reference: article doi:10.1101/2025.09.08.674899 (bioRxiv, 2025)

Biological target: T1, PSAF subunit of Chlamydomonas reinhardtii Photosystem I (Chlamydomonas reinhardtii (endogenous …, UniProt P12356 63-227))
T1 sequence (looked up): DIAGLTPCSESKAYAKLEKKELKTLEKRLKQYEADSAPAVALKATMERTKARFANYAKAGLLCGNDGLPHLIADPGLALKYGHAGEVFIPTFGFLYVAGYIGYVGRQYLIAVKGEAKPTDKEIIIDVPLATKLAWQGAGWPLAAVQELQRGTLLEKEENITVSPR
Assay: cross-linking

B1: Chlamydomonas reinhardtii cytochrome c6 E71Q (natural protein)
chain: ADLALGAQVFNGNCAACHMGGRNSVMPEKTLDKAALEQYLDGGFKVESIIYQVENGKGAMPAWADRLSEEQIQAVAEYVFKQATDAAWKY
modifications: heme (c-type cytochrome)
binding result: binds
